{
  "source": "patent US20040175816",
  "molecular_target": "T1, OkrAI restriction endonuclease (Oceanospirillum kriegii) (UniProt E2JKI3)",
  "T1 sequence": "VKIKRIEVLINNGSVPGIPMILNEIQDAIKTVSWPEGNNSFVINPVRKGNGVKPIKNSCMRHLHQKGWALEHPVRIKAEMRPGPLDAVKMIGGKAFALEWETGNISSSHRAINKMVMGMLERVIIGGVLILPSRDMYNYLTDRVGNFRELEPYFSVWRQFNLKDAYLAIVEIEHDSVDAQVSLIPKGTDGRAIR",
  "test": "cleavage_in_vitro",
  "conditions": "approximate yield, assayed in cell extract; isoschizomer of BamHI",
  "data": [
    {"substance": "lambda phage DNA", "values": [
      {"measurement": "activity (units per gram wet cells)", "value": "5e+06"}
    ]}
  ]
}
